Results taken from PMC3050080.

What was measured:
TIA-1 RRM23 = biological target: T1, TIA-1 RRM23 (UniProt P31483 104-288); test: fluorescence anisotropy
T1 sequence: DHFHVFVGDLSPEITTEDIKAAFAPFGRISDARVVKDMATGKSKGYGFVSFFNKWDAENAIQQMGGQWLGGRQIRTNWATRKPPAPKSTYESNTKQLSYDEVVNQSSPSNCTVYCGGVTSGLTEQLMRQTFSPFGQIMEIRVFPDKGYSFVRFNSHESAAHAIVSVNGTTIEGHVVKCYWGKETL

SXL RRM12 = biological target: T2, SXL RRM12 (UniProt P19339 122-294); test: fluorescence anisotropy
T2 sequence: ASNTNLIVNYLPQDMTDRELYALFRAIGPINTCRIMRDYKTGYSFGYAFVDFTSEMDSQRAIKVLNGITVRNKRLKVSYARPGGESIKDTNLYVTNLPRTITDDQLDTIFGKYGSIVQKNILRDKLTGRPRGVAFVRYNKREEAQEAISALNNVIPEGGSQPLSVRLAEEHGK

B1: U20 (ssRNA)
RNA: UUUUUUUUUUUUUUUUUUUU
B1 showed a Kd (TIA-1 RRM23) of 33 ± 6 nM and a Kd (SXL RRM12) of 7 ± 3 nM.
